The results in this text go back to patent publication US20080242633A1.

The experiment addresses Apaf-1 (UniProt O14727). In words: cell-based or functional assay.
Sequence of UniProt O14727 (O14727 whole entry): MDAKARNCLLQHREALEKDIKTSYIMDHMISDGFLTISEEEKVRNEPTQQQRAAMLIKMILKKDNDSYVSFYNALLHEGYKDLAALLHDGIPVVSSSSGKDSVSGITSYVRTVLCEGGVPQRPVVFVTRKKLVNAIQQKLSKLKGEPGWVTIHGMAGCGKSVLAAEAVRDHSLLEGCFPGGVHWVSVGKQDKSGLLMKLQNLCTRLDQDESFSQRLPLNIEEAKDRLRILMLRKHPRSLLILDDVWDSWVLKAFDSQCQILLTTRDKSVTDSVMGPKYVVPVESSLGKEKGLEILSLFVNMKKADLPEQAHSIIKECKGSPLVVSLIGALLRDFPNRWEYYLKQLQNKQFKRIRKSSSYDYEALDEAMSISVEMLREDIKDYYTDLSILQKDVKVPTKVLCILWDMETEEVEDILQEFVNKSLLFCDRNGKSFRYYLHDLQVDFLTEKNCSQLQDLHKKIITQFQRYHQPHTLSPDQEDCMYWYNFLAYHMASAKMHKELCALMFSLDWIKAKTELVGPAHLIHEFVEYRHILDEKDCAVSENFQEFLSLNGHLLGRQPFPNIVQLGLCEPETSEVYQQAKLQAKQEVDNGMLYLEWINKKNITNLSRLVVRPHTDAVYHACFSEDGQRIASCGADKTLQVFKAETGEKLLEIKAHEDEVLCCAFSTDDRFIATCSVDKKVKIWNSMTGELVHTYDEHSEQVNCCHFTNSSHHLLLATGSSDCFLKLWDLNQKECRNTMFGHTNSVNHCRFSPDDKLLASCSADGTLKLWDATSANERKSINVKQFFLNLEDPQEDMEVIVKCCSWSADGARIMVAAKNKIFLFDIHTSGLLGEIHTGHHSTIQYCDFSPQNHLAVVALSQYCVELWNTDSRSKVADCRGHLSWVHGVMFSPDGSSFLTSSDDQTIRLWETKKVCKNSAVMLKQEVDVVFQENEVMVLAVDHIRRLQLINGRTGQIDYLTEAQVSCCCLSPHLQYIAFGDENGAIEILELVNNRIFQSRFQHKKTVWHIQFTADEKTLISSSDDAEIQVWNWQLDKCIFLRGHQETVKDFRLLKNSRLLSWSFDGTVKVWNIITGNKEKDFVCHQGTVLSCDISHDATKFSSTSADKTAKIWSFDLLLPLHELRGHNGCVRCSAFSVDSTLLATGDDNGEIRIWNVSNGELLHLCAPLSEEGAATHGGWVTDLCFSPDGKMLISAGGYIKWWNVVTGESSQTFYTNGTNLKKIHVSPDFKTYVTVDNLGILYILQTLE

In the case of “CYCS(Gly42-Ser) (from UniProt P99999 2-105)”, the caspase-3 activation activity (AMC production rate from Ac-DEVD-AMC, cell-free assay with U-937 cytosol) (fold greater than wild type) is 1.4.
